According to the supplement of paper PMC5998384:

Assays:
[1] = tested on: HeLa Kyoto; experiment: melting temperature (median over replicates), in situ; higher = more thermally stable
[2] = tested on: HeLa Kyoto; experiment: thermal stability score vs G1/S (z-score of summed log2 fold changes over temperatures); higher = more thermally stable than in G1/S
[3] = tested on: HeLa Kyoto; experiment: solubility in G1/S (NP-40 vs SDS abundance) (log2 ratio); higher = more soluble; conditions: cell cycle stage: G1/S
[4] = tested on: HeLa Kyoto; experiment: solubility change mitosis vs G1/S (difference of NP-40 vs SDS log2 ratios) (log2 ratio difference); higher = more soluble in mitosis
[5] = cell cycle stage: early G1 (4.5 h after nocodazole release)
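Throughout, for melting temperature (median over replicates), in situ: HeLa Kyoto cells synchronized by double thymidine or nocodazole block, proteins quantified by TMT10plex mass spectrometry, three independent biological replicates.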
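Throughout, for solubility change mitosis vs G1/S (difference of NP-40 vs SDS log2 ratios): synchronized HeLa Kyoto cells (double thymidine block for G1/S, nocodazole release for mitosis), protein amounts in NP-40 versus SDS lysates quantified by mass spectrometry, three biological replicates.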
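Throughout, for solubility in G1/S (NP-40 vs SDS abundance): HeLa Kyoto cells arrested at G1/S by double thymidine block, proteins quantified by TMT10plex mass spectrometry in mild NP-40 versus SDS extracts, three biological replicates.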
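Throughout, for thermal stability score vs G1/S (z-score of summed log2 fold changes over temperatures): synchronized HeLa Kyoto cells, proteins quantified by TMT10plex mass spectrometry, three biological replicates, mitosis taken 0.5 h after nocodazole release, G1/S directly after double thymidine block.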

| Sequence | melting temperature ([1]; cell cycle stage: G1/S) | melting temperature ([1]; cell cycle stage: mitosis) | thermal stability score [2, 5] | thermal stability score ([2]; cell cycle stage: mitosis) | solubility in G1/S (log2) [3] | solubility change mitosis (log2) [4] |
| --- | --- | --- | --- | --- | --- | --- |
| MVGREKELSIHFVPGSCRLVEEEVNIPNRRVLVTGATGLLGRAVHKEFQQNNWHAVGCGFRRARPKFEQVNLLDSNAVHHIIHDFQPHVIVHCAAERRPDVVENQPDAASQLNVDASGNLAKEAAAVGAFLIYISSDYVFDGTNPPYREEDIPAPLNLYGKTKLDGEKAVLENNLGAAVLRIPILYGEVEKLEESAVTVMFDKVQFSNKSANMDHWQQRFPTHVKDVATVCRQLAEKRMLDPSIKGTFHWSGNEQMTKYEMACAIADAFNLPSSHLRPITDSPVLGAQRPRNAQLDCSKLETLGIGQRTPFRIGIKESLWPFLIDKRWRQTVFH [MAT2B] | 55.5 °C | 56.3 °C | -0.304 | -1.94 | 0.344 | -0.0436 |
| MAQPPPDVEGDDCLPAYRHLFCPDLLRDKVAFITGGGSGIGFRIAEIFMRHGCHTVIASRSLPRVLTAARKLAGATGRRCLPLSMDVRAPPAVMAAVDQALKEFGRIDILINCAAGNFLCPAGALSFNAFKTVMDIDTSGTFNVSRVLYEKFFRDHGGVIVNITATLGNRGQALQVHAGSAKAAVDAMTRHLAVEWGPQNIRVNSLAPGPISGTEGLRRLGGPQASLSTKVTASPLQRLGNKTEIAHSVLYLASPLASYVTGAVLVADGGAWLTFPNGVKGLPDFASFSAKL [DECR2] | 51.9 °C | 52.1 °C | 1.32 | 0.657 | 0.0495 | -0.232 |
| MSCAGAAAAPRLWRLRPGARRSLSAYGRRTSVRFRSSGMTLDNISRAAVDRIIRVDHAGEYGANRIYAGQMAVLGRTSVGPVIQKMWDQEKDHLKKFNELMVTFRVRPTVLMPLWNVLGFALGAGTALLGKEGAMACTVAVEESIAHHYNNQIRTLMEEDPEKYEELLQLIKKFRDEELEHHDIGLDHDAELAPAYAVLKSIIQAGCRVAIYLSERL [COQ7] | 56.1 °C | 53.4 °C | -2.12 | -0.639 | -0.0496 | -0.0504 |
| MARKLSVILILTFALSVTNPLHELKAAAFPQTTEKISPNWESGINVDLAISTRQYHLQQLFYRYGENNSLSVEGFRKLLQNIGIDKIKRIHIHHDHDHHSDHEHHSDHERHSDHEHHSEHEHHSDHDHHSHHNHAASGKNKRKALCPDHDSDSSGKDPRNSQGKGAHRPEHASGRRNVKDSVSASEVTSTVYNTVSEGTHFLETIETPRPGKLFPKDVSSSTPPSVTSKSRVSRLAGRKTNESVSEPRKGFMYSRNTNENPQECFNASKLLTSHGMGIQVPLNATEFNYLCPAIINQIDARSCLIHTSEKKAEIPPKTYSLQIAWVGGFIAISIISFLSLLGVILVPLMNRVFFKFLLSFLVALAVGTLSGDAFLHLLPHSHASHHHSHSHEEPAMEMKRGPLFSHLSSQNIEESAYFDSTWKGLTALGGLYFMFLVEHVLTLIKQFKDKKKKNQKKPENDDDVEIKKQLSKYESQLSTNEEKVDTDDRTEGYLRADSQEPSHFDSQQPAVLEEEEVMIAHAHPQEVYNEYVPRGCKNKCHSHFHDTLGQSDDLIHHHHDYHHILHHHHHQNHHPHSHSQRYSREELKDAGVATLAWMVIMGDGLHNFSDGLAIGAAFTEGLSSGLSTSVAVFCHELPHELGDFAVLLKAGMTVKQAVLYNALSAMLAYLGMATGIFIGHYAENVSMWIFALTAGLFMYVALVDMVPEMLHNDASDHGCSRWGYFFLQNAGMLLGFGIMLLISIFEHKIVFRINF [SLC39A6] | – | 57.4 °C | 0.915 | -0.208 | -0.161 | -0.0474 |
| MGKKYKNIVLLKGLEVINDYHFRMVKSLLSNDLKLNLKMREEYDKIQIADLMEEKFRGDAGLGKLIKIFEDIPTLEDLAETLKKEKLKVKGPALSRKRKKEVDATSPAPSTSSTVKTEGAEATPGAQKRKKSTKEKAGPKGSKVSEEQTQPPSPAGAGMSTAMGRSPSPKTSLSAPPNSSSTENPKTVAKCQVTPRRNVLQKRPVIVKVLSTTKPFEYETPEMEKKIMFHATVATQTQFFHVKVLNTSLKEKFNGKKIIIISDYLEYDSLLEVNEESTVSEAGPNQTFEVPNKIINRAKETLKIDILHKQASGNIVYGVFMLHKKTVNQKTTIYEIQDDRGKMDVVGTGQCHNIPCEEGDKLQLFCFRLRKKNQMSKLISEMHSFIQIKKKTNPRNNDPKSMKLPQEQRQLPYPSEASTTFPESHLRTPQMPPTTPSSSFFTKKSEDTISKMNDFMRMQILKEGSHFPGPFMTSIGPAESHPHTPQMPPSTPSSSFLTTKSEDTISKMNDFMRMQILKEGSHFPGPFMTSIGPAESHPHTPQMPPSTPSSSFLTTLKPRLKTEPEEVSIEDSAQSDLKEVMVLNATESFVYEPKEQKKMFHATVATENEVFRVKVFNIDLKEKFTPKKIIAIANYVCRNGFLEVYPFTLVADVNADRNMEIPKGLIRSASVTPKINQLCSQTKGSFVNGVFEVHKKNVRGEFTYYEIQDNTGKMEVVVHGRLTTINCEEGDKLKLTCFELAPKSGNTGELRSVIHSHIKVIKTRKNKKDILNPDSSMETSPDFFF [IFI16] | 46.8 °C | 49.1 °C | 3.09 | 5.43 | -0.293 | 0.318 |
| MELRVGNKYRLGRKIGSGSFGDIYLGANIASGEEVAIKLECVKTKHPQLHIESKFYKMMQGGVGIPSIKWCGAEGDYNVMVMELLGPSLEDLFNFCSRKFSLKTVLLLADQMISRIEYIHSKNFIHRDVKPDNFLMGLGKKGNLVYIIDFGLAKKYRDARTHQHIPYRENKNLTGTARYASINTHLGIEQSRRDDLESLGYVLMYFNLGSLPWQGLKAATKRQKYERISEKKMSTPIEVLCKGYPSEFSTYLNFCRSLRFDDKPDYSYLRQLFRNLFHRQGFSYDYVFDWNMLKFGAARNPEDVDRERREHEREERMGQLRGSATRALPPGPPTGATANRLRSAAEPVASTPASRIQPAGNTSPRAISRVDRERKVSMRLHRGAPANVSSSDLTGRQEVSRIPASQTSVPFDHLGK [CSNK1E] | 49.7 °C | 49 °C | 0.572 | 0.264 | -0.212 | 0.102 |
